Reference: paper PMC5841405 (2018)
Residue numbers refer to the chain shown, from its start. Numbers in names are those of the source. Where two headings read alike, the source gives them in different places. Blank lines part the entries; values can stand above or below the binder they belong to.

B1: Hook3_(1–160)A138D (domain or fragment)
chain: MFSVESLERAELCESLLTWIQTFNVDAPCQTVEDLTNGVVMAQVLQKIDPAYFDENWLNRIKTEVGDNWRLKISNLKKILKGILDYNHEILGQQINDFTLPDVNLIGEHSDAAELGRMLQLILGCAVNCEQKQEYIQDIMMMEESVQHVVMTAIQELMSK
B2: Hook3_(1–160) (domain or fragment)
chain: B1 chain with D138A

Experiments:
[1] = molecular target: T1, BICD2_(1–98) (human, UniProt Q8TD16-1 1-98); experiment: ITC; second site (KD2), 30°C
T1 chain: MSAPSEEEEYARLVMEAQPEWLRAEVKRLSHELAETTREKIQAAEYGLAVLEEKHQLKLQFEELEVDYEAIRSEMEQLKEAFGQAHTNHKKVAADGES

[2] = molecular target: T2, Spindly_(1–142) (human, UniProt Q96EA4-1 1-142); experiment: ITC; first site (KD1)
T2 chain: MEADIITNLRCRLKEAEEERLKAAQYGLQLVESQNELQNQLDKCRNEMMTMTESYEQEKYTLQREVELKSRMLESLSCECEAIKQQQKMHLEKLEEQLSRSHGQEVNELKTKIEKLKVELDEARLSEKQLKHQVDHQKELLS

[3] = molecular target: T1, BICD2_(1–98); experiment: ITC; first site (KD1), 30°C
[4] = molecular target: B2; experiment: ITC
[5] = molecular target: T2, Spindly_(1–142); experiment: ITC; second site (KD2)
[6] = molecular target: MBP-LIC1FL (human); experiment: ITC
[7] = molecular target: MBP-LIC1FL (human); experiment: ITC; remark: listed apart in the source

Chain of MBP-LIC1FL (human) (chain, as listed by the source): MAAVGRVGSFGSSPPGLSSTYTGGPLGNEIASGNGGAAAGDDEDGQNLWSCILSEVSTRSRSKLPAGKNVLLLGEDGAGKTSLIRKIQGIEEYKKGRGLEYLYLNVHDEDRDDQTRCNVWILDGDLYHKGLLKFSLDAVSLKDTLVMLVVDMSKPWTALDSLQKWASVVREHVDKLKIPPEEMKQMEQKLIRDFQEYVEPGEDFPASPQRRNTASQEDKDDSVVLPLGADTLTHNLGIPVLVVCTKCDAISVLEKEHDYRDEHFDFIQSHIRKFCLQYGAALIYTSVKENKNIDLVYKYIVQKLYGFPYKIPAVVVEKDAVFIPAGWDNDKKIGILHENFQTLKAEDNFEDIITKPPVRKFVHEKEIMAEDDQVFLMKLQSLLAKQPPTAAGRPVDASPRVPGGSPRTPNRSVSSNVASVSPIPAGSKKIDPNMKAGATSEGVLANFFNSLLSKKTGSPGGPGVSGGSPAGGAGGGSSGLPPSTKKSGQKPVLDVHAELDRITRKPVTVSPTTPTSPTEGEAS

Kd [2]: 3.6 µM
Kd [4]: 6.3 µM
Kd [5]: 7.6 µM
Binder: NMKAGATSEGVLANFFNSLLSKKTGS [LIC1_(433–458)]
Kd [1]: 7.5 µM
Kd [3]: 1.5 µM

Binder: B1
Kd [6]: 8.1 µM

Binder: B2
Kd [7]: 12.3 µM
